This note sets out measurements from patent publication US20080138349A1 (MacroGenics, published 2008).

The target in experiment [1] is T1, FcγRIIIA (UniProt P08637 17-208, limits assumed).
T1 construct: also called CD16A
The experiment is described as follows: ELISA.

Experiment [2] deals with T1, FcγRIIIA. The experiment is described as follows: ELISA. This is another data set of the same source.
Experiment [3] concerns the target T2, soluble monomeric FcγRIIIA, the extracellular region of FcγRIIIA joined to the linker-AVITAG sequence (UniProt P08637 17-208, limits assumed).
T2 construct: extracellular domain; also called FcRIIIA; FcR3A
As to the kind of experiment: BIAcore. (SPR reads the build-up and loss of mass on a sensor chip optically.)

Experiment [4] addresses T3, FcγRIIB-Fc fusion protein, soluble dimeric: extracellular domain of FcγRIIB fused to the hinge-CH2-CH3 domain … (human, UniProt P31994 43-217, limits assumed).
T3 construct: extracellular domain; also called FcRIIB-Fc; FcR2B; not shown: human IgG2 hinge-CH2-CH3
T3 sequence (looked up): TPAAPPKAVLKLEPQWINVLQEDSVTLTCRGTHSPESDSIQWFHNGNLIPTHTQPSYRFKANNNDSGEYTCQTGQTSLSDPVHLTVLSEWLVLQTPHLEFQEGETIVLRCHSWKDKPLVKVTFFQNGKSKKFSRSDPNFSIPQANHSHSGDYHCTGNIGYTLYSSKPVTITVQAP
As to the kind of experiment: BIAcore.

The target in a further experiment is T4, FcγRIIB (UniProt P31994 43-217, limits assumed).
T4 construct: also called CD32B
T4 sequence (looked up): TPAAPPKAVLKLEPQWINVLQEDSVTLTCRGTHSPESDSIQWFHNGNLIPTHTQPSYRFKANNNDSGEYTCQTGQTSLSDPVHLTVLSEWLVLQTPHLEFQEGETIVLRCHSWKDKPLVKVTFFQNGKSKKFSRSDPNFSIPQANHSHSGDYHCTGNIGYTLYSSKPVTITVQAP
The experiment is described as follows: ELISA.

T1 sequence (P08637 17-208 limits assumed): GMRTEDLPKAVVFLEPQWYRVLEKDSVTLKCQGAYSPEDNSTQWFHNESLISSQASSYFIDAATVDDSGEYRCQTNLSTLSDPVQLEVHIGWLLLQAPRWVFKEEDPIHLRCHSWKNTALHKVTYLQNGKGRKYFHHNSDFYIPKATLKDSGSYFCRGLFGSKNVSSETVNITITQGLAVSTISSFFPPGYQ
T2 sequence (P08637 17-208 limits assumed): as above

B1: ch4-4-20 V379M (antibody)
chain 1: not shown
chain 2: DVVMTQTPLSLPVSLGDQASISCRSSQSLVHSNGNTYLRWYLQKPGQSPKVLIYKVSNRFSGVPDRFSGSGSGTDFTLKISRVEAEDLGVYFCSQSTHVPWTFGGGTKLEIKRTVAAPSVFIFPPSDEQLKSGTASVVCLLNNFYPREAKVQWKVDNALQSGNSQESVTEQDSKDSTYSLSSTLTLSKADYEKHKVYACEVTHQGLSSPVTKSFNRGEC
The term Kd denotes the equilibrium constant for the complex coming apart. A higher Kd goes with a looser complex. For orientation: koff means the rate constant with which the complex falls apart. A lower koff goes with slow dissociation. With B1, the “ELISA IIIA binding vs wt” value in the experiment with FcγRIIIA [1] was determined as 2 X. Further, the “ELISA binding increase vs wt” value with FcγRIIIA [2] stood at 2 x. For the same molecule, the results for the Kd in experiment [3] and in experiment [4] were 0.16 µM and 0.07 µM, respectively. The koff in experiment [3] stood at 0.167 s⁻¹; in experiment [4], 0.1 s⁻¹.

B2: ch4-4-20 F243I, V379L, G420V (antibody)
chain 1: EVKLDETGGGLVQPGRPMKLSCVASGFTFSDYWMNWVRQSPEKGLEWVAQIRNKPYNYETYYSDSVKGRFTISRDDSKSSVYLQMNNLRVEDMGIYYCTGSYYGMDYWGQGTSVTVSSASTKGPSVFPLAPSSKSTSGGTAALGCLVKDYFPEPVTVSWNSGALTSGVHTFPAVLQSSGLYSLSSVVTVPSSSLGTQTYICNVNHKPSNTKVDKKVEPKSCDKTHTCPPCPAPELLGGPSVFLIPPKPKDTLMISRTPEVTCVVVDVSHEDPEVKFNWYVDGVEVHNAKTKPREEQYNSTYRVVSVLTVLHQDWLNGKEYKCKVSNKALPAPIEKTISKAKGQPREPQVYTLPPSRDELTKNQVSLTCLVKGFYPSDIALEWESNGQPENNYKTTPPVLDSDGSFFLYSKLTVDKSRWQQVNVFSCSVMHEALHNHYTQKSLSLSPGK
chain 2: DVVMTQTPLSLPVSLGDQASISCRSSQSLVHSNGNTYLRWYLQKPGQSPKVLIYKVSNRFSGVPDRFSGSGSGTDFTLKISRVEAEDLGVYFCSQSTHVPWTFGGGTKLEIKRTVAAPSVFIFPPSDEQLKSGTASVVCLLNNFYPREAKVQWKVDNALQSGNSQESVTEQDSKDSTYSLSSTLTLSKADYEKHKVYACEVTHQGLSSPVTKSFNRGEC
For the molecule B2, in the experiment with FcγRIIB, the “ELISA binding increase vs wt” value was 3.5 x. In addition, in experiment [4], binding was put at a Kd of 0.0934 µM and the off-rate constant (koff) came out at 0.101 s⁻¹.

B3: ch4-4-20 F243I, V379L (antibody)
chain 1: not shown
chain 2: DVVMTQTPLSLPVSLGDQASISCRSSQSLVHSNGNTYLRWYLQKPGQSPKVLIYKVSNRFSGVPDRFSGSGSGTDFTLKISRVEAEDLGVYFCSQSTHVPWTFGGGTKLEIKRTVAAPSVFIFPPSDEQLKSGTASVVCLLNNFYPREAKVQWKVDNALQSGNSQESVTEQDSKDSTYSLSSTLTLSKADYEKHKVYACEVTHQGLSSPVTKSFNRGEC
In experiment [3], B3 showed a Kd of 0.0997 µM and a koff of 0.105 s⁻¹. In experiment [4], this molecule yielded a Kd of 0.12 µM and a koff of 0.113 s⁻¹.

B4: ch4-4-20 G316D, A378V, D399E (antibody)
chain 1: EVKLDETGGGLVQPGRPMKLSCVASGFTFSDYWMNWVRQSPEKGLEWVAQIRNKPYNYETYYSDSVKGRFTISRDDSKSSVYLQMNNLRVEDMGIYYCTGSYYGMDYWGQGTSVTVSSASTKGPSVFPLAPSSKSTSGGTAALGCLVKDYFPEPVTVSWNSGALTSGVHTFPAVLQSSGLYSLSSVVTVPSSSLGTQTYICNVNHKPSNTKVDKKVEPKSCDKTHTCPPCPAPELLGGPSVFLFPPKPKDTLMISRTPEVTCVVVDVSHEDPEVKFNWYVDGVEVHNAKTKPREEQYNSTYRVVSVLTVLHQDWLNDKEYKCKVSNKALPAPIEKTISKAKGQPREPQVYTLPPSRDELTKNQVSLTCLVKGFYPSDIVVEWESNGQPENNYKTTPPVLESDGSFFLYSKLTVDKSRWQQGNVFSCSVMHEALHNHYTQKSLSLSPGK
chain 2: DVVMTQTPLSLPVSLGDQASISCRSSQSLVHSNGNTYLRWYLQKPGQSPKVLIYKVSNRFSGVPDRFSGSGSGTDFTLKISRVEAEDLGVYFCSQSTHVPWTFGGGTKLEIKRTVAAPSVFIFPPSDEQLKSGTASVVCLLNNFYPREAKVQWKVDNALQSGNSQESVTEQDSKDSTYSLSSTLTLSKADYEKHKVYACEVTHQGLSSPVTKSFNRGEC
With B4, in the experiment with FcγRIIIA [1], the “ELISA IIIA binding vs wt” value was 1.5 X. Besides, the entries for the “ELISA binding increase vs wt” value with FcγRIIIA [2] and in the experiment with FcγRIIB were 1.5 x and 14 x, respectively. The Kd in experiment [3] worked out at 0.072 µM; in experiment [4], 0.046 µM. Moreover, the koff in experiment [3] came to 0.117 s⁻¹; in experiment [4], 0.06 s⁻¹.

B5: ch4-4-20 P247L, N421K (antibody)
chain 1: not shown
chain 2: DVVMTQTPLSLPVSLGDQASISCRSSQSLVHSNGNTYLRWYLQKPGQSPKVLIYKVSNRFSGVPDRFSGSGSGTDFTLKISRVEAEDLGVYFCSQSTHVPWTFGGGTKLEIKRTVAAPSVFIFPPSDEQLKSGTASVVCLLNNFYPREAKVQWKVDNALQSGNSQESVTEQDSKDSTYSLSSTLTLSKADYEKHKVYACEVTHQGLSSPVTKSFNRGEC
For B5, in the experiment with FcγRIIIA [1], the “ELISA IIIA binding vs wt” value came out at 3 X. The “ELISA binding increase vs wt” value with FcγRIIIA [2] is 3 x. Also, in experiment [3], the Kd worked out at 0.062 µM and the koff stood at 0.108 s⁻¹. In experiment [4], the equilibrium dissociation constant (Kd) was 0.066 µM and the dissociation rate constant (koff) was 0.065 s⁻¹.

B6: ch4-4-20 K334E, T359N, T366S (antibody)
chain 1: EVKLDETGGGLVQPGRPMKLSCVASGFTFSDYWMNWVRQSPEKGLEWVAQIRNKPYNYETYYSDSVKGRFTISRDDSKSSVYLQMNNLRVEDMGIYYCTGSYYGMDYWGQGTSVTVSSASTKGPSVFPLAPSSKSTSGGTAALGCLVKDYFPEPVTVSWNSGALTSGVHTFPAVLQSSGLYSLSSVVTVPSSSLGTQTYICNVNHKPSNTKVDKKVEPKSCDKTHTCPPCPAPELLGGPSVFLFPPKPKDTLMISRTPEVTCVVVDVSHEDPEVKFNWYVDGVEVHNAKTKPREEQYNSTYRVVSVLTVLHQDWLNGKEYKCKVSNKALPAPIEETISKAKGQPREPQVYTLPPSRDELNKNQVSLSCLVKGFYPSDIAVEWESNGQPENNYKTTPPVLDSDGSFFLYSKLTVDKSRWQQGNVFSCSVMHEALHNHYTQKSLSLSPGK
chain 2: DVVMTQTPLSLPVSLGDQASISCRSSQSLVHSNGNTYLRWYLQKPGQSPKVLIYKVSNRFSGVPDRFSGSGSGTDFTLKISRVEAEDLGVYFCSQSTHVPWTFGGGTKLEIKRTVAAPSVFIFPPSDEQLKSGTASVVCLLNNFYPREAKVQWKVDNALQSGNSQESVTEQDSKDSTYSLSSTLTLSKADYEKHKVYACEVTHQGLSSPVTKSFNRGEC
As for B6, in the experiment with FcγRIIIA [1], the “ELISA IIIA binding vs wt” value came out at 1.5 X. Besides, the “ELISA binding increase vs wt” value with FcγRIIIA [2] was found to be 1.5 x. In experiment [3], this molecule had a Kd of 0.0552 µM and a koff of 0.128 s⁻¹. In experiment [4], this molecule came in with a Kd of 0.072 µM and an off-rate (koff) of 0.11 s⁻¹.

B7: ch4-4-20 V348M, K334N, F275I, Y202M, K147T (antibody)
chain: ASTKGPSVFPLAPSSKSTSGGTAALGCLVTDYFPEPVTVSWNSGALTSGVHTFPAVLQSSGLYSLSSVVTVPSSSLGTQTYICNMNHKPSNTKVDKKVEPKSCDKTHTCPPCPAPELLGGPSVFLFPPKPKDTLMISRTPEVTCVVVDVSHEDPEVKINWYVDGVEVHNAKTKPREEQYNSTYRVVSVLTVLHQDWLNGKEYKCKVSNKALPAPIENTISKAKGQPREPQMYTLPPSRDELTKNQVSLTCLVKGFYPSDIAVEWESNGQPENNYKTTPPVLDSDGSFFLYSKLTVDKSRWQQGNVFSCSVMHEALHNHYTQKSLSLSPGK
Consider B7, for which the “ELISA binding increase vs wt” value is 0.5 x with FcγRIIIA [2] and 0.75 x with FcγRIIB.

B8: ch4-4-20 E293V, Q295E, A327T (antibody)
chain: EPKSCDKTHTCPPCPAPELLGGPSVFLFPPKPKDTLMISRTPEVTCVVVDVSHEDPEVKFNWYVDGVEVHNAKTKPRVEEYNSTYRVVSVLTVLHQDWLNGKEYKCKVSNKTLPAPIEKTISKAKGQPREPQVYTLPPSREEMTKNQVSLTCLVKGFYPSDIAVEWESNGQPENNYKTTPPVLDSDGSFFLYSKLTVDKSRWQQGNVFSCSVMHEALHNHYTQKSLSLSPGK
For B8, the “ELISA IIIA binding vs wt” value with FcγRIIIA [1] is 1.4 X. For the same molecule, in the experiment with FcγRIIIA [2], the “ELISA binding increase vs wt” value is 0.4 x. Besides, in experiment [4], the dissociation constant (Kd) is 0.086 µM.

B9: ch4-4-20 Y319F, P352L, P396L (antibody)
chain: EPKSCDKTHTCPPCPAPELLGGPSVFLFPPKPKDTLMISRTPEVTCVVVDVSHEDPEVKFNWYVDGVEVHNAKTKPREEQYNSTYRVVSVLTVLHQDWLNGKEFKCKVSNKALPAPIEKTISKAKGQPREPQVYTLLPSREEMTKNQVSLTCLVKGFYPSDIAVEWESNGQPENNYKTTPLVLDSDGSFFLYSKLTVDKSRWQQGNVFSCSVMHEALHNHYTQKSLSLSPGK
On to B9, for which, in the experiment with FcγRIIIA [1], the “ELISA IIIA binding vs wt” value came to 3.5 X. This molecule also yielded a Kd in experiment [3] of 0.125 µM.

B10: ch4-4-20 D221E, D270E, V308A, Q311H, P396L, G402D (antibody)
chain: EPKSCEKTHTCPPCPAPELLGGPSVFLFPPKPKDTLMISRTPEVTCVVVDVSHEEPEVKFNWYVDGVEVHNAKTKPREEQYNSTYRVVSVLTALHHDWLNGKEYKCKVSNKALPAPIEKTISKAKGQPREPQVYTLPPSREEMTKNQVSLTCLVKGFYPSDIAVEWESNGQPENNYKTTPLVLDSDDSFFLYSKLTVDKSRWQQGNVFSCSVMHEALHNHYTQKSLSLSPGK
As for B10, the entries for the “ELISA binding increase vs wt” value with FcγRIIIA [2] and with FcγRIIB were 3.6 x and 0.1 x, respectively.

B11: ch4-4-20 K317N, F423-deleted (antibody)
chain: EPKSCDKTHTCPPCPAPELLGGPSVFLFPPKPKDTLMISRTPEVTCVVVDVSHEDPEVKFNWYVDGVEVHNAKTKPREEQYNSTYRVVSVLTVLHQDWLNGNEYKCKVSNKALPAPIEKTISKAKGQPREPQVYTLPPSREEMTKNQVSLTCLVKGFYPSDIAVEWESNGQPENNYKTTPPVLDSDGSFFLYSKLTVDKSRWQQGNVSCSVMHEALHNHYTQKSLSLSPGK
Take B11: in the experiment with FcγRIIB, the “ELISA binding increase vs wt” value was 7 x.

B12: ch4-4-20 T215P, K274N, A287G, K334N, L365V, P396L (antibody)
chain: PEPKSCDKTHTCPPCPAPELLGGPSVFLFPPKPKDTLMISRTPEVTCVVVDVSHEDPEVNFNWYVDGVEVHNGKTKPREEQYNSTYRVVSVLTVLHQDWLNGKEYKCKVSNKALPAPIENTISKAKGQPREPQVYTLPPSRDELTKNQVSVTCLVKGFYPSDIAVEWESNGQPENNYKTTPLVLDSDGSFFLYSKLTVDKSRWQQGNVFSCSVMHEALHNHYTQKSLSLSPGK
With B12, in the experiment with FcγRIIB, the “ELISA binding increase vs wt” value worked out at 4 x.
